Here are results for four sequences from patent US10562947B2, “Compositions and methods for preventing or treating diseases, conditions or processes characterized by aberrant fibroblast proliferation and extracellular matrix deposition” (MOERAE MATRIX, INC., priority 2011, dated 2020).

Experiment in all cases: Kinase Profiling Assay
Format in all cases: biochemical
Conditions in all cases: 100 μM peptide

One test has as its target Tie2(Y897S)(h) (Homo sapiens, UniProt Q02763, Y897S). The essentials:
(§1)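 Specificity of the MK2-directed peptides is examined by measuring activity of 266 human kinases, every determination performed in duplicate.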

A further test concerns the target Axl(h) (Homo sapiens, UniProt P30530). The essentials: as §1
In another test the target is Fgr(h) (Homo sapiens, UniProt P09769). Summed up: as §1
The next test addresses mTOR/FKBP12(h) (Homo sapiens, UniProt P42345). Summed up:
as §1

A further test concerns the target T1, Ret(V804L)(h) (Homo sapiens, UniProt P07949, V804L).
T1 construct: purchased Millipore (IC50 Profiler Express service)
Summed up: as §1

The target in a further test is T2, PKCι(h) (Homo sapiens, UniProt P41743).
T2 construct: purchased Millipore (IC50 Profiler Express service)
T2 sequence (P41743 1-596): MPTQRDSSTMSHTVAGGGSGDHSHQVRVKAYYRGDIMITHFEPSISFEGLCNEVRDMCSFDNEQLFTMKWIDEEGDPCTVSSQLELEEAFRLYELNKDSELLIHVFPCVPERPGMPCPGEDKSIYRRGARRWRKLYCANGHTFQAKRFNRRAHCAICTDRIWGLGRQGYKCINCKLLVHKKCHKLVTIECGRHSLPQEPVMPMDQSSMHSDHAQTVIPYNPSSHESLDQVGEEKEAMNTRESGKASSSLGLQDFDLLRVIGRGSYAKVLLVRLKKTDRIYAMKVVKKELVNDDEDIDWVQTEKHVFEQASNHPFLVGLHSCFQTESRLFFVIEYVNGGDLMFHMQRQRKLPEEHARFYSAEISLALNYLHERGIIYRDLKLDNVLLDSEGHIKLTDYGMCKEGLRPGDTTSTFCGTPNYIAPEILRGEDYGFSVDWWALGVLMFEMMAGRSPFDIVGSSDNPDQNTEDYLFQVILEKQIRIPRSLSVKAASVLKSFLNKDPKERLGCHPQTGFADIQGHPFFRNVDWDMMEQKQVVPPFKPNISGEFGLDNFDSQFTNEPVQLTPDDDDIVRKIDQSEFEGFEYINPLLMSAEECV
Summed up:
as §1

In the next test the target is T3, PKCϵ(h) (Homo sapiens, UniProt Q02156).
T3 sequence (Q02156 1-737): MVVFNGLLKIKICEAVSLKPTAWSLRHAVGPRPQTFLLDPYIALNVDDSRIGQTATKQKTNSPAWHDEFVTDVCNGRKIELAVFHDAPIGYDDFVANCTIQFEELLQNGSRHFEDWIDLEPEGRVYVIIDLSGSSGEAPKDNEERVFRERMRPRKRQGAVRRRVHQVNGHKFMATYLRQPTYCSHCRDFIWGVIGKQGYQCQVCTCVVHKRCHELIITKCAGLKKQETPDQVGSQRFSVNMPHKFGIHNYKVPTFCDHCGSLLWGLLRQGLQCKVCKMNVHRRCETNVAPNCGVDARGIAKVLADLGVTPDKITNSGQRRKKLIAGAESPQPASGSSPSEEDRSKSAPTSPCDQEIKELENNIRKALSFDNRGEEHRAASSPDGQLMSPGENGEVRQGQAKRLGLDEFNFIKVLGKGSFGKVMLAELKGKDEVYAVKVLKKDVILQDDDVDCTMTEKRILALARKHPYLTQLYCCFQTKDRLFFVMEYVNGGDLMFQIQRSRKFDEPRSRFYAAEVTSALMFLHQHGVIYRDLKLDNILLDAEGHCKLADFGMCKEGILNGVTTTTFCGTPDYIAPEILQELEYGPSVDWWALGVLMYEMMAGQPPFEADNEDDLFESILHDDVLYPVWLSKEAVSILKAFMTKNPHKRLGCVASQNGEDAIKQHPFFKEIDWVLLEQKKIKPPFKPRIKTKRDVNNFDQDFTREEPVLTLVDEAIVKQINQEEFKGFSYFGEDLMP
Summed up: as §1

A further test concerns the target PKBα(h) (Homo sapiens, UniProt P31749). Summed up: as §1
The next test deals with MARK1(h) (Homo sapiens, UniProt Q9P0L2). The essentials: as §1
Chain of MARK1(h) (Q9P0L2 whole entry): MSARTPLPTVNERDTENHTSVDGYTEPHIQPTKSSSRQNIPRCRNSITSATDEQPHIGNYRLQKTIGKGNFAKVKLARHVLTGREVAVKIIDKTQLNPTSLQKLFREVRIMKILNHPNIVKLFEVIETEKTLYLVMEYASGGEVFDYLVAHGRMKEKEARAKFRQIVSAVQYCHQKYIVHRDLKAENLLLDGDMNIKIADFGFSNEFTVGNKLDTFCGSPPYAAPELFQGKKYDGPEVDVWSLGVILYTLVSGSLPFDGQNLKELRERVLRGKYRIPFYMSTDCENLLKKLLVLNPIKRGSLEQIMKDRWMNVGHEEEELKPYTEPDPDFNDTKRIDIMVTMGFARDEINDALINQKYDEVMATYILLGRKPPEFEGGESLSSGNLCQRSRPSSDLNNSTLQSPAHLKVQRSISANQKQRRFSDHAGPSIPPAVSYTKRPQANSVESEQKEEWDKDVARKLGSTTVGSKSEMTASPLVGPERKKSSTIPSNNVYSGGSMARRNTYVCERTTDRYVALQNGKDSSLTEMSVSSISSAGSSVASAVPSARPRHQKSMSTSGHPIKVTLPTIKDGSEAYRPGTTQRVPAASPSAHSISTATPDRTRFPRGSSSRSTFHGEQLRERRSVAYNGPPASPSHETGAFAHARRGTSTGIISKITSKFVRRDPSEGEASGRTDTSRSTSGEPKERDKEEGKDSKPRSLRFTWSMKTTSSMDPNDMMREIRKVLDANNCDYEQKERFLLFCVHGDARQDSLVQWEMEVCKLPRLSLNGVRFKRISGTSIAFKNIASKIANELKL
In a further test the target is T4, IR(h), activated (Homo sapiens, UniProt P06213).
T4 construct: purchased Millipore
T4 sequence (P06213 1005-1310 limits assumed): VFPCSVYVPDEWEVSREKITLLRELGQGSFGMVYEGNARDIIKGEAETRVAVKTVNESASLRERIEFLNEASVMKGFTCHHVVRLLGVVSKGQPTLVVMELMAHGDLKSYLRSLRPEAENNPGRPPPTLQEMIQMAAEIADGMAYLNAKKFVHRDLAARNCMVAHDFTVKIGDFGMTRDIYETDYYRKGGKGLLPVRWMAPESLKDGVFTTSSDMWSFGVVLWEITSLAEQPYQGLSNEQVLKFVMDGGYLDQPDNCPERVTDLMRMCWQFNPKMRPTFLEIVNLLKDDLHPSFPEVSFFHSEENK
Summed up:
as §1

A further test addresses T5, NLK(h) (Homo sapiens, UniProt Q9UBE8).
T5 sequence (Q9UBE8 1-527): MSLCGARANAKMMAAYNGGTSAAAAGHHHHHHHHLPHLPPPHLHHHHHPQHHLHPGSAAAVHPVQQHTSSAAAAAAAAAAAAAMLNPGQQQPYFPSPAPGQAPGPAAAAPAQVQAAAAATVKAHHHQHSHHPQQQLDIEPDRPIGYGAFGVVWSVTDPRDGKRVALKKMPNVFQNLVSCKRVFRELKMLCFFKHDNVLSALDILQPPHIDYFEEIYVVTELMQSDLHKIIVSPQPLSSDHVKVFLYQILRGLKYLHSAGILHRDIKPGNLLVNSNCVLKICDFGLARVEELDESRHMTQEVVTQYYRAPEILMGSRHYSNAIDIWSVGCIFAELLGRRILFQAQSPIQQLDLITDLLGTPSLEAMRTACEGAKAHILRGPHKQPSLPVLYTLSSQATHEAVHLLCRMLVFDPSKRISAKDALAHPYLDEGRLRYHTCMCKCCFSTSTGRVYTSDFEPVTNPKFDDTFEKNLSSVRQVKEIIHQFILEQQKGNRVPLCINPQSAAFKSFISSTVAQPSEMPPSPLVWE
The essentials:
as §1

The target in another test is TrkA(h) (Homo sapiens, UniProt P04629). Summed up: as §1
Chain of TrkA(h) (P04629 33-796): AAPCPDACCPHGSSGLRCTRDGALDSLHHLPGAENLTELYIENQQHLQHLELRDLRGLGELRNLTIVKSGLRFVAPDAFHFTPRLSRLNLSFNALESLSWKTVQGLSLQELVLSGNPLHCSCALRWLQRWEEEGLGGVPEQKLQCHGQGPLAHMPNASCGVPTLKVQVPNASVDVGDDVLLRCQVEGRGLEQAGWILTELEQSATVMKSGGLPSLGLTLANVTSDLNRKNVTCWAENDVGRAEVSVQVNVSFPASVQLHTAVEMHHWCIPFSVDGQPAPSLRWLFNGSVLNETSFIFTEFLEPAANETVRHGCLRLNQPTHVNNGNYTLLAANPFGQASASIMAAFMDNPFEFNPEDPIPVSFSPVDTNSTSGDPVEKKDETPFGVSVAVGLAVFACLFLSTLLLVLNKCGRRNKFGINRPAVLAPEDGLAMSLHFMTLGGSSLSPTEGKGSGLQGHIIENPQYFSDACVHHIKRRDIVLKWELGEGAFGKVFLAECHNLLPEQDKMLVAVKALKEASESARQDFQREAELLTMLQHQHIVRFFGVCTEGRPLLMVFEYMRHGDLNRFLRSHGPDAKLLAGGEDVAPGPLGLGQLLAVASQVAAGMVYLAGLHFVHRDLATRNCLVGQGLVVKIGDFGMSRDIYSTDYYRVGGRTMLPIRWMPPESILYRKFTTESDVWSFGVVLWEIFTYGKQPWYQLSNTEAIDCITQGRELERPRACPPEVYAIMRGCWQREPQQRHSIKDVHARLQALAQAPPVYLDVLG

Chain of PKBα(h) (P31749 whole entry): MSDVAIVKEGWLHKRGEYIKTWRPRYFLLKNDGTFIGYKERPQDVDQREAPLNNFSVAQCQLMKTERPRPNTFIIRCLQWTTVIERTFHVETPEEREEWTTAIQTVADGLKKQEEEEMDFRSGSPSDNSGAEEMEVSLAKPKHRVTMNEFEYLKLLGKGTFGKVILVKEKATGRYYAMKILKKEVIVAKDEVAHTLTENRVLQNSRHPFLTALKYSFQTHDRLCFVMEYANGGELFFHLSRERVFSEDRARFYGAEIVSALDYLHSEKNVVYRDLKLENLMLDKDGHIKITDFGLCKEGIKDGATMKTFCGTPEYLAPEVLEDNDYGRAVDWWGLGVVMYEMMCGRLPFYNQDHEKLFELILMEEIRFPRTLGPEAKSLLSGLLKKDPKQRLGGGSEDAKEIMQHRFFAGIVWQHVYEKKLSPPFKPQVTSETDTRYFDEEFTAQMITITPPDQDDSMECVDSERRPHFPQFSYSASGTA
Chain of mTOR/FKBP12(h) (P42345 1362-2549 limits assumed): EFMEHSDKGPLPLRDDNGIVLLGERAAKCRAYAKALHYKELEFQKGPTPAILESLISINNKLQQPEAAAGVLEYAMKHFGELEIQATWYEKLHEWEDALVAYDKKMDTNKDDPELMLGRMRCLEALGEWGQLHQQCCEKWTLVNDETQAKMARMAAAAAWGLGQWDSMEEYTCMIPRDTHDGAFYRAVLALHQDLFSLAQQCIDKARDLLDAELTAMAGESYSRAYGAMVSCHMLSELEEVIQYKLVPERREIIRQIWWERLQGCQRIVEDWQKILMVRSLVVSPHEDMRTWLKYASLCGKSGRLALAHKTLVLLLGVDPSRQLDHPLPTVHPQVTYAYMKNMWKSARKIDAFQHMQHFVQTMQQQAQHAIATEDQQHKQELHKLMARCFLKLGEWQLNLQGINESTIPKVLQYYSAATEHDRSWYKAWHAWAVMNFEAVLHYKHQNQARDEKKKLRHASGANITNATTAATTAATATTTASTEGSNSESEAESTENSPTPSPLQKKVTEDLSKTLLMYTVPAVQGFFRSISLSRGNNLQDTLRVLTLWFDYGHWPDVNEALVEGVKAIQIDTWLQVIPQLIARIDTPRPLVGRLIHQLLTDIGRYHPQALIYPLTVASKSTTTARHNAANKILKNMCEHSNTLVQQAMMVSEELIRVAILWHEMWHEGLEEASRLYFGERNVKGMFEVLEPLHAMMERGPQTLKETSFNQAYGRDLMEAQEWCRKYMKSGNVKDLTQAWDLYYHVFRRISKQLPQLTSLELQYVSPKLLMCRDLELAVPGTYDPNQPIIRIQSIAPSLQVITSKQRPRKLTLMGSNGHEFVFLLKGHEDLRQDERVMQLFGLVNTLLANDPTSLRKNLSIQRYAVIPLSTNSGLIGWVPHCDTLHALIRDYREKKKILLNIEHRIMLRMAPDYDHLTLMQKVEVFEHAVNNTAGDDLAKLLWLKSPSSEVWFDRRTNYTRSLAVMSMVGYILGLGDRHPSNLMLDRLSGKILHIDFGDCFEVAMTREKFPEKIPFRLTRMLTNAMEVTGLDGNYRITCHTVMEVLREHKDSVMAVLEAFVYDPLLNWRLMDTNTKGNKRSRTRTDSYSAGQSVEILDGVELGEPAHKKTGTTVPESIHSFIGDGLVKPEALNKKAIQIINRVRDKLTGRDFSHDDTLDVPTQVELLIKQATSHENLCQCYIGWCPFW
Chain of Tie2(Y897S)(h) (Q02763 23-1124 Y897S): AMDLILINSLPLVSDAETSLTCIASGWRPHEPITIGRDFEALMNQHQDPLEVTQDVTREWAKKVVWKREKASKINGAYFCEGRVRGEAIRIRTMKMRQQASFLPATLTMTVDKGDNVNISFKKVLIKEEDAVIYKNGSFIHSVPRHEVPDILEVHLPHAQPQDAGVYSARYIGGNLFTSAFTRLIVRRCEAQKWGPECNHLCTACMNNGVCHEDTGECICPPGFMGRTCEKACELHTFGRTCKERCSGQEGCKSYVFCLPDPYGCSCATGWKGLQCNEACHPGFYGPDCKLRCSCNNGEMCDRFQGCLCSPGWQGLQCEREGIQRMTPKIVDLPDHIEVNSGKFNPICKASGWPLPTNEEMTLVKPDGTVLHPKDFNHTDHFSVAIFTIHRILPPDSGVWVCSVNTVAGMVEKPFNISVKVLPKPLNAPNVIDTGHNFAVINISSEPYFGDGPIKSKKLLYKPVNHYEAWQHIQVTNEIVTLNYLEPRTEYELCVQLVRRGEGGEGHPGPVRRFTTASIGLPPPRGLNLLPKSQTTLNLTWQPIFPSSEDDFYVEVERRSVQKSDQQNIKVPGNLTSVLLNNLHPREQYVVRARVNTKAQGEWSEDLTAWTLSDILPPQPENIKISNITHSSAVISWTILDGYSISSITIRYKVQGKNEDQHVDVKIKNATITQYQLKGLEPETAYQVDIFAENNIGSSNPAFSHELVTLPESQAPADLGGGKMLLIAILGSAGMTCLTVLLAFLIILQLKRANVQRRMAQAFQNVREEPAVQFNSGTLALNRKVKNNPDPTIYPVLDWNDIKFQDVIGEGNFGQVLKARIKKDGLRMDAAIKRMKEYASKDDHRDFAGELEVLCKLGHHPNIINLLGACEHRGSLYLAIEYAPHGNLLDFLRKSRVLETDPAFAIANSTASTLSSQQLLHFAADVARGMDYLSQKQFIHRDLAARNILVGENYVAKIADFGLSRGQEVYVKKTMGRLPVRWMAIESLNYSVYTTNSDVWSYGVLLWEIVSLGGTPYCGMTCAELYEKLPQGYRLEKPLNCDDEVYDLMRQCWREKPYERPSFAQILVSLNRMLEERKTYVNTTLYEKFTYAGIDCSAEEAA

Regarding “YARAAARQARAKALNRQLGVA (Mammalian) [MMI-0200]”, the “Tie2(Y897S)(h) % activity” value with Tie2(Y897S)(h) is reported as 85%. Besides, the “Axl(h) % activity” value in the test with Axl(h) was found to be 99%. In the test with Fgr(h), the “Fgr(h) % activity” value worked out at 71%. Besides, the “mTOR/FKBP12(h) % activity” value with mTOR/FKBP12(h) was determined as 118%. The “Ret(V804L)(h) % activity” value in the test with Ret(V804L)(h) turned out to be 100%. In the test with PKCι(h), the “PKCι(h) % activity” value came to 97%. Moreover, in the test with PKCϵ(h), the “PKCϵ(h) % activity” value came to 98%. In addition, the “PKBα(h) % activity” value with PKBα(h) is 110%.
For the sequence “HRRIKAWLKKIKALARQLGVAA (Mammalian) [MMI-0500]”, the “MARK1(h) % activity” value in the test with MARK1(h) was determined as 110%. In the test with Tie2(Y897S)(h), the “Tie2(Y897S)(h) % activity” value turned out to be 80%. In addition, the “Axl(h) % activity” value with Axl(h) was determined as 12%. In addition, the “mTOR/FKBP12(h) % activity” value in the test with mTOR/FKBP12(h) turned out to be 140%. Further, in the test with IR(h), activated, the “IR(h), activated % activity” value stood at 90%. For the same sequence, in the test with NLK(h), the “NLK(h) % activity” value is 19%. Besides, the “Ret(V804L)(h) % activity” value in the test with Ret(V804L)(h) was 20%. Besides, the “PKCι(h) % activity” value in the test with PKCι(h) turned out to be 7%. Besides, the “PKCϵ(h) % activity” value with PKCϵ(h) worked out at 23%. Further, the “TrkA(h) % activity” value in the test with TrkA(h) is 24%. Moreover, the “PKBα(h) % activity” value with PKBα(h) was 30%.
KAFAKLAARLYRKALARQLGVAA [MMI-0400]: the “MARK1(h) % activity” value in the test with MARK1(h) stood at 120%. Moreover, the “Tie2(Y897S)(h) % activity” value with Tie2(Y897S)(h) is given as 87%. For the same sequence, the “Axl(h) % activity” value in the test with Axl(h) was determined as 41%. In the test with Fgr(h), the “Fgr(h) % activity” value is reported as 47%. Also, the “mTOR/FKBP12(h) % activity” value with mTOR/FKBP12(h) was determined as 125%. The “IR(h), activated % activity” value with IR(h), activated was 59%. Moreover, in the test with NLK(h), the “NLK(h) % activity” value came to 90%. Moreover, in the test with Ret(V804L)(h), the “Ret(V804L)(h) % activity” value came out at 73%. Further, the “PKCι(h) % activity” value with PKCι(h) worked out at 46%. Further, the “PKCϵ(h) % activity” value with PKCϵ(h) is recorded as 59%. Further, the “TrkA(h) % activity” value in the test with TrkA(h) was found to be 17%. The “PKBα(h) % activity” value with PKBα(h) was 67%.
Turning to FAKLAARLYRKALARQLGVAA [MMI-0300], the “MARK1(h) % activity” value with MARK1(h) is recorded as 132%. In the test with Tie2(Y897S)(h), the “Tie2(Y897S)(h) % activity” value stood at 83%. Also, in the test with Axl(h), the “Axl(h) % activity” value came to 52%. Besides, the “Fgr(h) % activity” value in the test with Fgr(h) is recorded as 60%. The “mTOR/FKBP12(h) % activity” value with mTOR/FKBP12(h) is given as 145%. The “IR(h), activated % activity” value with IR(h), activated is 79%. In addition, the “NLK(h) % activity” value in the test with NLK(h) came out at 87%. In addition, in the test with Ret(V804L)(h), the “Ret(V804L)(h) % activity” value worked out at 79%. The “PKCι(h) % activity” value with PKCι(h) was 68%. Besides, the “PKCϵ(h) % activity” value with PKCϵ(h) amounted to 79%. In addition, the “TrkA(h) % activity” value with TrkA(h) is given as 25%. Besides, the “PKBα(h) % activity” value with PKBα(h) stood at 57%.
